Here are results for one molecule from patent US20090162869A1 (RIKEN, published 2009).

This assay addresses T1, DAP12, endogenous in mouse cells (splenic cells, FL-PDC) (mouse, UniProt O54885 22-114, phosphorylated in CpG-A-stimulated FL-PDC (sites not given)).
T1 construct: whole, on cells
Nature of the assay: association in CpG-A-stimulated FL-PDC (FIG. 20); method not described.

T1 sequence (O54885 22-114): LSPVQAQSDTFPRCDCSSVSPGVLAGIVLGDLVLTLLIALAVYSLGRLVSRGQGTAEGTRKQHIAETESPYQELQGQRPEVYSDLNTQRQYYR

B1: membrane molecule (A) of the present invention (PDC-TREM), mouse, full length (receptor)
chain: QNPELLRTQEGETVSVTCWYDSLYHSSEKIWCKQIDNLCYPFVSKSAEKPRFLIQQSSRFNFFTVTMTKLKMSDSGIYHCGIVANNTSVYLRNIHLVVSKGSSVVSTPDIIPATRLTKLPTLITTKHSPSDTTTTRSLPQPTTVVSSPDPRVIIINGTDADRGFVSSVTIPVVCGLLSKTLVFTVLFIVTQKSFGRQAMKAHNSNS
notes: also called the present membrane molecule
Consider B1, for which the binding result is recorded as “binds”.
